In US20150361450:
Like-named read-outs stand apart in the source and are kept apart here.

What was measured:
[1] = tested on: preKARS2 (precursor of human mitochondrial lysyl-tRNA synthetase) (Homo sapiens), Q15046-2; details: CITED targeting sequence said to completely abolish RNA binding; cited from earlier work
[2] = tested on: KARS2 (mature mitochondrial lysyl-tRNA synthetase, lacking predicted mitochondrial targeting presequence) (Homo sapiens); details: CITED apparent Kd, printed as 250+/240; cited from earlier work
[3] = tested on: preKARS2 (precursor of human mitochondrial lysyl-tRNA synthetase) (Homo sapiens), Q15046-2; assay: EMSA; details: apparent Kd, error printed as 300+/250 (likely +/-50); 20 mM Tris-HCl pH 7.5, 150 mM NaCl, 10 mM MgCl2, 30 C
[4] = tested on: preMSK1p (precursor of yeast mitochondrial lysyl-tRNA synthetase) (Saccharomyces cerevisiae); details: CITED previously evaluated apparent Kd, printed as 280+/260; cited from earlier work

Sequence of preKARS2 (precursor of human mitochondrial lysyl-tRNA synthetase) (Homo sapiens), Q15046-2 (Q15046 other isoform, or with tags, fused parts or gaps): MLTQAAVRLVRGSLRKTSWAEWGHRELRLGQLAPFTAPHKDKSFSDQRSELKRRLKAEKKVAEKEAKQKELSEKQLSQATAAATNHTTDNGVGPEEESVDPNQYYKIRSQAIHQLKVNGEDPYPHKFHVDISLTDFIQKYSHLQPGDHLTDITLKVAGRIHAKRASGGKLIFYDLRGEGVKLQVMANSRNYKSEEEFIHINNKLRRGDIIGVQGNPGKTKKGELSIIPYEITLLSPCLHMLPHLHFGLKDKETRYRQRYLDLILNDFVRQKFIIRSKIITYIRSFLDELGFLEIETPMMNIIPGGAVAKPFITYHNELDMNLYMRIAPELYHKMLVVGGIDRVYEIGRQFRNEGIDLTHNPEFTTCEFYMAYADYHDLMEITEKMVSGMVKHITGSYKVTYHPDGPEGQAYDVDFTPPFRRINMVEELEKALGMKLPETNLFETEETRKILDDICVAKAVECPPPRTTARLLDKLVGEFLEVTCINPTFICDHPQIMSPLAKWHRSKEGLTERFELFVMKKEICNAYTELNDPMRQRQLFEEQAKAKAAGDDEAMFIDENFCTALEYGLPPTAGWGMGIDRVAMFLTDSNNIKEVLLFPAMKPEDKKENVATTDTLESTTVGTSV

Substance	Kd [1] [nM]	Kd [2] [nM]	Kd [3] [nM]	Kd [4] [nM]
human cytosolic tRNALys3	100000	250	–	–
tRK1 (yeast tRNALys CUU, T7 transcript)	–	–	300	280
